B1: anti-SEB monoclonal antibody 11-7E (antibody, V domains shown)
VH: QVQLKESGPELVRPGVSVKISCKGSGYTFTDYAMHWVKQSHAKSLEWIGIISTYSGNTNYNQKFKAKATMTVDKSSSTAYMELARLTSEDSAIYYCAREGYYGSSRSFDVWGAGTTLTVSS
VL: QIVLTQSPALMSASPGEKVTMTCSASSSVSYMYWYQQKPRSSPKPWIYLTSNLASGVPARFSGSGSGTSYSLTISSMEAEDAATYYCQQWSSNPLTFGAGTKLELK
notes: also called 11-7E mAb
B2: anti-SEB monoclonal antibody 2-7A (antibody, V domains shown)
VH: EVLLVESGGGLVQPGGSLRLSCATSGFTFTDYYMSWVRQPPGKALEWLGFIRNKANGYTTKYSASVKGRFTISRDNSQSILYLQMNTLRAEDSATYYCAKDNWEAYFDYWGQGTTLTVSS
VL: DVVMTQTPLSLPVSLGDQASISCRSSQSIVHSNGNTYLEWYLQKPGQSPKLLIYKVSNRFSGVPDRFSGSGSGTDFTLKISRVEAEDLGVYYCFQGSHVPWTFGGGTKLELK
notes: also called 2-7A mAb
B3: anti-SEB monoclonal antibody 4-7A (antibody, V domains shown)
VH: QVQMQQSGAELVRPGASVKLSCKASGYTFTNNWMNWVKQRPGQGLQWIGMIDPSDSETHYNQMFKDKASLTVDKSSSSAYMVLSSLTSEDSAVYYCARRALSYYGSNPTLFDYWGQGTTLTVSS
VL: DIVMSQSPSSLAVSVGEKVTMSCKSSQSLLYSSNQKNYLAWYQQKPGQSPKLLIYWASTWESGVPDRFTGSGSGTNFTLTINSVKTEDLAVYYCQQYSGYPYTFGGGTKLELK
notes: also called 4-7A mAb

What was measured:
[1] = target: natural SEB secreted from S. aureus strain CCARM 3089 (Staphylococcus aureus CCARM 3089, UniProt P01552, strain); experiment: ELISA; conditions: one partner purified
[2] = target: natural SEB secreted from S. aureus strain SA2 (Staphylococcus aureus SA2 (bovine …, UniProt P01552, strain)); experiment: ELISA; conditions: one partner purified
[3] = target: T1, recombinant SEB produced by BEVS (staphylococcal enterotoxin B, 6x His-tagged) (Staphylococcus aureus., UniProt P01552); experiment: ELISA; conditions: both partners purified
T1 construct: not shown: His6, C-terminal, kept

[4] = target: T1, recombinant SEB produced by BEVS …; experiment: BLI; conditions: both partners purified

Row | Binder | binding result [1] | binding result [2] | EC50 [3] | Kd [4] | koff [4] | kon [4]
1 | B1 | binds | binds | 16.7 nM | 0.331 nM | 3.27e-05 s⁻¹ | 99000 M⁻¹ s⁻¹
2 | B2 |  |  | 13.5 nM | 0.55 nM | 7.02e-05 s⁻¹ | 128000 M⁻¹ s⁻¹
3 | B3 |  |  | 14.5 nM | 1.55 nM | 0.000226 s⁻¹ | 146000 M⁻¹ s⁻¹

Source: PMC9599101 (Biosensors, 2022)
